Source: US8729030B2 (Affymax, Inc., priority 2003, dated 2014)
Bridges are numbered along the chain shown (N, C = ends). Where no end group is shown, it is not given here. [ ]: non-standard residue; d: D form. 1Nal = N[C@@H](Cc1cccc2ccccc12)C(=O)O; Sar = CNCC(=O)O

Molecular target: T1, Recombinant Human EPO R/Fc Chimera (Homo sapiens, UniProt P19235)
T1 construct: recombinant EPOr extracellular domain fused to the Fc portion of human IgG1; purchased R&D Systems (Minneapolis, MN, US) 963-ER
T1 sequence (P19235 25-250 limits assumed): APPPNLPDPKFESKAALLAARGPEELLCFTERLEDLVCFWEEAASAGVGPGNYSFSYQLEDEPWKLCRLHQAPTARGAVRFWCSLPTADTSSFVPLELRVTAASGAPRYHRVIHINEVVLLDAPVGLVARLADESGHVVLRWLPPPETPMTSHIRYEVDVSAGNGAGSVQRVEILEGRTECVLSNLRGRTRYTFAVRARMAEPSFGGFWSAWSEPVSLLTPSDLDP
Assay: Radioligand competitive binding assay (125I-EPO)
Conditions: Table 6; competition with 125I-EPO, 4° C. overnight
Experimental: An alternative radioligand competition binding assay can also be used to measure IC50 values of peptides in this invention. This assay measures binding of ^125I-EPO to EPOr. The assay is preferably performed according to the following exemplary protocol:
One 50 μg vial of lyophilized recombinant EPOr extracellular domain fused to the Fc portion of human IgG1 is reconstituted in 1 mL of assay buffer. […] Tubes are capped and mixed gently at 4° C. overnight on a LabQuake rotating shaker.
The next day, 50 μL of a 50% slurry of Protein-G Sepharose is added to each tube. Tubes are then incubated for 2 hours at 4° C., mixing gently. The tubes are then centrifuged for 15 min at 4000 RPM (3297×G) to pellet the protein-G sepharose. The supernatants are carefully removed and discarded. After washing 3 times with 1 mL of 4° C. assay buffer, the pellets are counted in a Wallac Wizard gamma counter. Results are then analyzed and the dilution required to reach 50% of the maximum binding value is calculated.
The next day, bound ^125I-EPO is quantitated as described above. The results are analyzed and the IC50 value calculated using Graphpad Prism version 4.0, from GraphPad Software, Inc. (San Diego, Calif.). The assay is repeated two or more times for each peptide tested, for a total of 3 or more replicate IC50 determinations. See Table 6 for IC50 values of Peptide I.

IC50: 111 pM
Substance: peptide dimer of monomers (AcG)GLYACHMGPIT(1-nal)VCQPLR(MeG)K (SEQ ID NO: 2) (Ac-GGLYACHMGPIT[1Nal]VCQPLR[Sar]K; disulfide 6-15 (inferred); not fully specified (residue 1); printed as (AcG)GLYACHMGPIT(1-nal)VCQPLR(MeG)K; also: homodimer, dimer linkage not given here) [Peptide I]
